For series [1] the following is noted: Link_TGS6; cited from earlier work.
Series [2] deals with EMT6 breast cancer syngeneic model. The series can be described thus: Real-time whole-body imaging of Dylight 650 labelled IL-2 fusion proteins in tumors. The format is in vivo. The note with it: 8 mg/kg IV once, each time-point over 96 hours, EMT6 tumor-bearing BALB/c mice. How it is done:
The levels of IL-2 fusion proteins present in tumors in vivo were assessed by utilizing fluorescently labelled proteins and real-time whole-body imaging. Non-cleavable Construct GGG and Construct DD were conjugated to Dylight 650 probe according to the manufacturer's protocol (Dylight 650 Antibody labeling kit, ThermoFisher). […] BALB/c mice were subcutaneously inoculated with EMT6 breast cancer syngeneic model, and when the average tumor volume reached 240 mm^3, animals were randomized into 3 groups based on tumor volumes (n=2 mice per treatment group).
Following administration of a single dose of the labeled IL-2 fusion proteins to tumor-bearing mice, fluorescent images (excitation 640/emission 680 consistent with Dylight 650 probe ex/em spectra) were captured over 96 hours on an IVIS system (PerkinElmer, IVIS Lumina Series III) and are shown in FIG. 5A. The fluorescence intensity in tumor areas was quantified across the groups, average background tumor fluorescence (group 1) was subtracted from group 2 and 3 values at each time-point, and data were normalized to the initial fluorescence intensity of same amount of each labeled protein. […] This signifies next generation retention linker Construct DD accumulated and was retained in tumors at 2-fold higher levels compared to IL-2 fusion protein Construct GGG, lacking any targeting sequence.

Series [3] relates to collagen. The series can be described thus: Collagen-agarose pulldown assay with IL-2 immunoblot. The format is binding. The note with it: for binding to collagen-agarose beads (pulldown): 18-22 hours at 4° C. The protocol: To test binding to collagen, a pulldown assay using agarose cross-linked to collagen (Sigma) was performed. IL-2 fusion proteins were incubated with collagen-agarose or control agarose beads for 18-22 hours at 4° C. with gentle rotation in 1% BSA/PBS-0.05% Tween 20. After washing, proteins bound to the beads were eluted by resuspending beads in SDS sample buffer (Life Technologies). Bound proteins were then separated by SDS-PAGE on 4-12% BisTris gradient gel, followed by immunoblotting with goat anti-mouse IL-2 polyclonal antibody (AF-402-NA; R&D systems). Donkey anti-goat HRP-conjugated antibody was used for detection (Jackson Immuno Research, West Grove, PA), and the blot was developed using the SuperSignal West Femto Maximum sensitivity detection reagent (ThermoFisher) following the manufacturer's recommendations.
A general note: A western blot detects proteins with antibodies after separation by electrophoresis.

Series [4] relates to B16F10 melanoma cells. The series can be described thus: B16F10 melanoma tumor growth inhibition study. In kind it is in vivo. Particulars: 20 mg/kg IV Q3D, 5 doses, B16F10 in C57BL/6 mice. The protocol: C57BL/6 mice were subcutaneously inoculated with B16F10 melanoma cells and when the average tumor volume reached on average 70-90 mm^3, animals were randomized into 6 groups based on tumor volumes (n=8 mice per treatment group). Mice were dosed intravenously every 3 days (Q3D) for a total of 5 doses according to Table 7.
Tumor volumes were measured twice a week for the duration of the study. […] On day 14, animals were sacrificed, and tissues and blood (processed to serum) were collected 24 hours post final dose (dose #5) and stored at −80° C. until further testing.

In series [5] the test system is B16F10 melanoma cells. The series can be described thus: Tumor lysate levels of full-length fusion protein (ELISA), IL-2 and IFN-γ (Luminex), B16F10 study. In kind it is in vivo, C57BL/6 mice. The note with it: tumor lysate 24 hours after last dose. How it is done:
An ELISA assay was developed to detect and quantify prodrug fusion proteins comprising IL-2 and IL-2Ra moieties. Wells of a 96-well plate were coated overnight with 100 μL of a rat anti-mouse IL-2 monoclonal antibody (JES6-1A12; ThermoFisher) at […] in PBS. After washing, wells are blocked with TBS/0.05% Tween 20/1% BSA, then fusion proteins and/or unknown biological samples were added for 1 hour at room temperature. After washing, an anti-mouse IL-2Ra biotin-labelled detection antibody (BAF2438, R&D systems) was added and binding was detected using Ultra Strepavidin HRP (ThermoFisher). The ELISA plate was developed by adding the chromogenic tetramethylbenzidine substrate (Ultra TMB, ThermoFisher). The reaction was stopped by addition of 0.5 M H2SO4, and the absorbance was read at 450-650 nm.
The levels of full-length IL-2-IL-2Ra fusion proteins, IL-2, and IFN-7 were quantified in tumor samples collected during a pre-clinical efficacy study comparing a panel of retention linker IL-2 fusion drugs (see Example 10).
Tumors (n=3 per group) were collected 24 hours after the last dose injection, flash frozen, and stored at −80° C. until further processing. Tumor lysates were generated using tissue extraction reagent (ThermoFisher) supplemented with protease and phosphatase inhibitors. Standard techniques and protein concentrations were determined using the BCA assay (Pierce). […]
In general terms: ELISA stands for enzyme-linked immunosorbent assay.

Numbering of substitutions follows the chain as printed. Names may count otherwise.

B1: 641 (protein)
chain: GVYHREARSGKYKLTYAEAKAVCEFEGGHLATYKGLEAARKIGFHVCAAGWMAKGRVGYPIVKPGPPNCGFGKTGIIDYGIRLNRSERWDAYCYNPHA
modifications: Synthetic: hyaluronic acid; pH dependent (Link_TGS6)
As to B1, in series [1], the “Note 2: pH dependence of binding to hyaluronic acid” value is reported as “binds better at lower pH”.

B2: Construct DD: mIL2-2x(GHHPH)-MMPscr-2x(G4S)-mIL2Ra(1-215)-muIgG1Fc; pH heparin (protein)
chain: APTSSSTSSSTAEAQQQQQQQQQQQQHLEQLLMDLQELLSRMENYRNLKLPRMLTFKFYLPKQATELKDLQCLEDELGPLRHVLDLTQSKSFQLEDAENFISNIRVTVVKLKGSDNTFECQFDDESATVVDFLRRWIAFCQSIISTSPQGHHPHGHHPHGVRLGPGGGGGSGGGGSELCLYDPPEVPNATFKALSYKNGTILNCECKRGFRRLKELVYMRCLGNSWSSNCQCTSNSHDKSRKQVTAQLEHQKEQQTTTDMQKPTQSMHQENLTGHCREPPPWKHEDSKRIYHFVEGQSVHYECIPGYKALQRGPAISICKMKCGKTGWTQPQLTCVDEREHHRFLASEESQGSRNSSPESETSCPITTTDFPQPTETTAMTETFVLTMEYKGCKPCICTVPEVSSVFIFPPKPKDVLTITLTPKVTCVVVDISKDDPEVQFSWFVDDVEVHTAQTQPREEQFNSTFRSVSELPIMHQDWLNGKEFKCRVNSAAFPAPIEKTISKTKGRPKAPQVYTIPPPKEQMAKDKVSLTCMITDFFPEDITVEWQWNGQPAENYKNTQPIMDTDGSYFVYSKLNVQKSNWEAGNTFTCSVLHEGLHNHHTEKSLSHSPGK
modifications: Synthetic: Construct DD
notes: mIL2-2x(GHHPH)-MMPscr-2x(G4S)-mIL2Ra(1-215)-muIgG1Fc; pH heparin
In the case of B2, the “tumor-associated fluorescence / level retained in tumors, fold higher compared to Construct GGG” value in series [2] is “roughly 2 fold”.

B3: Construct GG: mIL2-SGG-KLWVLPK-MMPcs1-2x(G4S)-mIL2Ra(1-215)-muIgG1Fc; collagen IV (protein)
chain: APTSSSTSSSTAEAQQQQQQQQQQQQHLEQLLMDLQELLSRMENYRNLKLPRMLTFKFYLPKQATELKDLQCLEDELGPLRHVLDLTQSKSFQLEDAENFISNIRVTVVKLKGSDNTFECQFDDESATVVDFLRRWIAFCQSIISTSPQSGGKLWVLPKGPLGVRGGGGGSGGGGSELCLYDPPEVPNATFKALSYKNGTILNCECKRGFRRLKELVYMRCLGNSWSSNCQCTSNSHDKSRKQVTAQLEHQKEQQTTTDMQKPTQSMHQENLTGHCREPPPWKHEDSKRIYHFVEGQSVHYECIPGYKALQRGPAISICKMKCGKTGWTQPQLTCVDEREHHRFLASEESQGSRNSSPESETSCPITTTDFPQPTETTAMTETFVLTMEYKGCKPCICTVPEVSSVFIFPPKPKDVLTITLTPKVTCVVVDISKDDPEVQFSWFVDDVEVHTAQTQPREEQFNSTFRSVSELPIMHQDWLNGKEFKCRVNSAAFPAPIEKTISKTKGRPKAPQVYTIPPPKEQMAKDKVSLTCMITDFFPEDITVEWQWNGQPAENYKNTQPIMDTDGSYFVYSKLNVQKSNWEAGNTFTCSVLHEGLHNHHTEKSLSHSPGK
modifications: Synthetic: Construct GG
notes: mIL2-SGG-KLWVLPK-MMPcs1-2x(G4S)-mIL2Ra(1-215)-muIgG1Fc; collagen IV
For B3, in series [3], the “binding to collagen-agarose beads (pulldown)” value is recorded as “specifically bound”. For the same molecule, the “fraction bound, fold higher than the fraction of bound Construct B” value in series [3] (blot quantitation) is 2.5 fold.

B4: Construct II: mIL2-LHERHLNNN-MMPcs1-2x(G4S)-mIL2Ra(1-215)-muIgG1Fc; collagen I (protein)
chain: B3 chain with G151L, G152H, K153E, L154R, W155H, V156L, L157N, P158N, K159N
modifications: Synthetic: Construct II
notes: mIL2-…-MMPcs1-2x(G4S)-mIL2Ra(1-215)-muIgG1Fc; collagen I
Regarding B4, the “binding to collagen-agarose beads (pulldown)” value in series [3] is listed as “specifically bound”.

B5: Construct III: mIL2-VRIQRKKEKMKET-MMPcs1-GGSKLWVLPKGS-mIL2Ra-muIgG1Fc; hep/col IV (protein)
chain: APTSSSTSSSTAEAQQQQQQQQQQQQHLEQLLMDLQELLSRMENYRNLKLPRMLTFKFYLPKQATELKDLQCLEDELGPLRHVLDLTQSKSFQLEDAENFISNIRVTVVKLKGSDNTFECQFDDESATVVDFLRRWIAFCQSIISTSPQVRIQRKKEKMKETGPLGVRGGGSKLWVLPKGSELCLYDPPEVPNATFKALSYKNGTILNCECKRGFRRLKELVYMRCLGNSWSSNCQCTSNSHDKSRKQVTAQLEHQKEQQTTTDMQKPTQSMHQENLTGHCREPPPWKHEDSKRIYHFVEGQSVHYECIPGYKALQRGPAISICKMKCGKTGWTQPQLTCVDEREHHRFLASEESQGSRNSSPESETSCPITTTDFPQPTETTAMTETFVLTMEYKGCKPCICTVPEVSSVFIFPPKPKDVLTITLTPKVTCVVVDISKDDPEVQFSWFVDDVEVHTAQTQPREEQFNSTFRSVSELPIMHQDWLNGKEFKCRVNSAAFPAPIEKTISKTKGRPKAPQVYTIPPPKEQMAKDKVSLTCMITDFFPEDITVEWQWNGQPAENYKNTQPIMDTDGSYFVYSKLNVQKSNWEAGNTFTCSVLHEGLHNHHTEKSLSHSPGK
modifications: Synthetic: Construct III
notes: mIL2-…-MMPcs1-…-mIL2Ra-muIgG1Fc; hep/col IV
Turning to B5, the “tumor growth inhibition (TGI)” value in series [4] was 83.5%. Besides, the “levels of IFN-7 in tumors” value in series [5] is “enhanced”. In series [5] (compared to other arms), the IL-2 intratumoral levels result was “highest”.

These data come from patent publication US20240417437A1, “Linker Polypeptides” (Trutino Biosciences Inc., priority 2021, published 2024).
